# Measured values as given in a protein production outcome set (Wang et al. 2014).
# Assay: label from the status in PepcDB records
row,Sequence,protein production
1,VTRRIAICAPSTPFTREDSARVIALAAAEFPDLSLSFHEQCFASEGHFAGSDALRLSAFLECANDDAFEAVWFVRGGYGANRIAEDALARLGRAASAKQYLGYSDAGTLLAALYAHRIGRSVHAPMPVDIRRPEGESAVRRTLGWLAGAREGLEPTLGAGAPAVAFNLMTLAMLCGTRLLPDLSGHVVMIEEVAEHHYAVDRLLFHVTSCLADAGIAGLRLGRVSDVPENDRPFGCSVEEMARHWCHRAGIAFLGTADIGHDVDNRIVPFGLA,not failed
2,VVAPITTGYTVKISNYGWDQSDKFVKIYITLTGVHQVPTENVQVHFTERSFDLLVKNLNGKSYSMIVNNLLKPISVEGSSKKVKTDTVLILCRKKVENTRWDYLTQVEKECKEK,not failed
3,VVFFRHLVSDDGSVRHTGDNLVGGVGQGGDDEAILVDLQRVPVHIDQIVFTVNSFTGQTFQEVQNAFCRLVDETNGQELARYTLAGGGAFTAQIMAKVHRAGQGWSMTAIGTPANGRTFQDLMPAILPVL,failed
4,VVKVALFVRLEAKPGKEKEVESFLMGGLPIVNEEPATTAWFGIRLGPSTFGIFDAFPNEAGRQAHLSGKVAAALMAKAGELFSEPPSIEKVDILAAKLPG,failed
5,VYPLELTLEEIFHGCLKKVAHKRKVLLFSGEYVEEERQLTVDVKPGLPTGTRFVFEGEGNKTPKKEPGPVVFVLKPKPHPRFVRRGSDLVHKVTLPLHHALIGTTLDIRTLDDRDLKVPISDIMRPGSSLTVPGEGMPLPATPSARGNLVIEIDLLFPTHLTETQKMLLRSAF,not failed
6,WERLRMLLEVCQFSRDASVAEAWLIAQEPYLASGDFGHTVDSVEKLIKRHEAFEKSTASWAERFAALEKPTTLELKERQIA,failed
7,WGLSVERSTYFLAPADRHYLADYARQAEDAWRREGAAGAERFRKELSAKEDTWVALVGPHLESLGSTPLSAEESSHLTFMRKLDWPMSRRLQDELPYVSIEFPGHPEQGRLVIQLPERLLPG,not failed
8,WILWSLTKISNHQEINEIIDQILQLTSDVFAADYTSVSFINNQQIARTISYYKFGKKEENISFSLINTPCAKVIQTKAICYFNDVQKQFPNDKLLKKMKINTYLAGPITNTQDEVIGIMTILCKRKVEFDTLNNTLFGLFLSRINSEIERLINLRKLE,failed
9,WKTGGRFLTLGVTLIMFIIVSNFLGLPFMYSATEAGEHIAWWRSPTSDPAVTLTLAVMVVTLTHYYGIKMKGTKEYVKGYFQPMKFLFPLKVIEEFANTLTLGLRLFGNIYAGEILLGLLAKLGGASFLGALGALVPMLAWMGFSVFVGSIQAFIFVMLTMVYMAHKVSHDH,failed
10,WTGEDSAEPNSDSAEWIRDMYAKVTEIWQEVMQRRDDDGTLHAACQVQPSATLDAAQPRVTGVVLFRQLAPRAKLDAFFALEGFP,failed
11,WVSNIDPAETFRHTELHVVKSVYDGLLTQNSNGGIEPALAHEWKMEENVMTLWLRPGIFRHDGELLSIDDVVWSLERLKQIKGPVYELWQCIETVTAETPNCLKIVLKRANQFFPYMLATPHASILCRDTASFGSGYSYHIGTGPFRISSWN,failed
12,YAHLRAGALRRLLQAQRLLPTGVRFLVLEGYRPPQLQRRYFEEYAATMRAAHPDEAPDRIRELTSAYISPPEVAPHVSGGAVDLTLCGADGTELPLGTEVNATPEESEGACRTAAPNISVEARANRAVMDRALTAVGFVNYPTEWWHWSYGDR,failed
13,YCVRGEKLVLFVTGVCPRNCFYCPLSPWRRKDVAYANERPIRKIEDIIEEAKIQEARGAGVTGGDPLARLNRTVEYIRTLKEEFGKKFHIHLYTTGILADKRALSMLYDAGL,failed
14,YESIDLKAVLFDMDGVLFDSMPNHAESWHKIMKRFGFGLSREEAYMHEGRTGASTINIVSRRERGHDATEEEIKAIYQAKTEEFNKCPKAERMPGALEVLTKIKSEGLTPMVVTGSGQTSLLDRLNHNFPGIFQANLMVTAFDVKYGKPNPEPYLMALKKGGFKPNEALVIENAPLGVQAGVAAGIFTIAVNTGPLHDNVLLNEGANLLFHSMPDFNKNWETLQSALKQ,failed
15,YGDINLNLLKDKGYTTLQDEAIKIFNSLQQLESMSDPIPIIQGILQTGHDLRPLRDELYCQLIKQTNKVPHPGSVGNLYSWQILTCLSCTFLPSRGILKYLKFHLKRIREQFPGTEMEKYALFTYESLKKTKCREFVPSRDEIEALIHRQEMTSTVYCHGGGSCKITINSHTTAGEVVEKLIRGLAMEDSRNMFALFEYNGHVDKAIESRTVVADVLAKFEKLAATSEVGDLPWKFYFKLYCFLDTDNVPKDSVEFAFMFEQAHEAVIHGHHPAPEENLQVLAALRLQYLQGDYTLHAAIPPLEEVYSLQRLKARISQSTKTFTPCERLEKRRTSFLEGTLRRSFRTGSVVRQKVEEEQMLDMWIKEEVSSARASIIDKWRKFQGMNQEQAMAKYMALIKEWPGYGSTLFDVECKEGGFPQELWLGVSADAVSVYKRGEGRPLEVFQYEHILSFGAPLANTYKIVVDERELLFETSEVVDVAKLMKAYISMIVKKRYSTTRSASSQGSSR,failed
16,YLELNEIESIIKDINTKAQKMHSGIHKRFYLFVALMTEFQALNGMRIGEMLAIQNEDIDFDNKSLNINGTIHWFHDESGGFGVKDTTKTESSYRTIGLSSRSCEILKKAILENKKDSKWNDGYLNRNFVFTNHKGNPMQTERFNKILREAAKDVGIDKEVSSHILRHSHISLLSQQGVSLKAIMDRVGHSDHRTTLSIYSHVTEQMDKDMMNKLEQVKLG,not failed
17,YLKVFDLDWHPDGMLDAKPALASADWKGLAELAQLSHKALEDAGLPQFEGSNAWAISGSRTQSGKPILAGDPHIRFSVPSVWYEAQLSAPGFELYGHFPALNPFAFLGHNMDFGWSLTMFQNDDVDLIAEKTNPDNPNQVWYHGQWVDMKRTEQQIAVKGQAPVTLTLIESPHGPIVNNVMGKNAGQTPIAMWWSFLVSANPVLDGFYDANRADTLDKMRSAAEKIQSPGLNIVWANAKGDIGWWAAAQLPIRPEGVNPGFILDGSTAQADKLGFYPFSANPHEENPARGYIVSANFQPLSPTGMQIPGYYNPAERGQELNRQLSDSSIKWDLAASKALQLSTQTDYAPSILRPLIPVLRSAISDPDELALVERLASWKGDYPVDSVGATLFN,failed
18,YMVPGLWGAPLKAVSAFAPPMKTQDFNLYTNEVHAKFDDYDLGMEYARQHNKPVMLDFTGYGCVNCRKMELAVWTDPKVSSIINNDYVLITLYVDNKTPLTEPVKIMENGTERTLRTVGDKWSYLQRVKFGANAQPFYVLIDNEGNPLNKSYAYDEDISKYINFLQTGLENYRKEK,failed
19,YQEPKGELVISAPTMFGRQHVLPVISEFIARYPLIRVRLLLSDRNADLVSDHVDLAVRIGDLADSSMVATRLGTMRIVACAHPALLAKYGEPQRPRDLAALPIIRIESPMPYRGWRFRAAEREDQLINLPPVLSVTTPESA,failed
20,YRATKLWNEVTTSFRAGMPLRKHRQHFKKYGNCFTAGEAVDWLYDLLRNNSNFGPEVTRQQTIQLLRKFLKNHVIEDIKGRWGSENVDDNNQLFRFPA,not failed
21,YRSKGEYHELLANHVAELSKLQNVLYADNRYAILLIFQAMDAAGKDSAIKHVMSGVNPQGCQVYSFKHPSATELEHDFLWRTNCVLPERGRIGIFNRSYYEEVLVVRVHPEILEMQNIPHNLAHNGKVWDHRYRSIVSHEQHLHCNGTRIVKFYLHLSKEEQRKRFLERIDDPNKNWKFSTADLEERKFWDQYMEAYESCLQETSTKDSPWFAVPADDKKNARLIVSRIVLDTLESLNLKYP,failed
22,YSVTVKWGKEKFEGVELNTDEPPMVFKAQLFALTGVQPARQKVMVKGGTLKDDDWGNIKMKNGMTVLMMGSADALPEEPSAKT,not failed
23,YTVEPVQDGERSVTLRRAGGTPLVAAMYHLPAAGSPDFVGLDLAATILADTPSGRLYHALVPTKLASGVFGFTMDQLDPGLAMFGAQLQPGMDQDKALQTLTATLESLSSKPFSQEELERARSKWLTAWQQTYADPEKVGVALSEAIASGDWRLFFLQRDRVRDAKLDDVQRAAVAYLVRSNRTEGRYIPTEKPQRAPLAQR,failed
24,YTVRLETEHAKEILSSDSPWASLEMFSFYGNYLKLVRTEYEGLRLSSGDTVFFLGSGPLPLTLIVFFRLYGVKSTGIEKDSFRANLSKKVLEKLGLSSVIKIVNGNHFSLSRKDLSLSPDTGVKALMIAAQAEPKKEIFEHLLEVMPIGGRISC,failed
